Series [1] deals with HeLa Kyoto. In words: solubility in G1/S (NP-40 vs SDS abundance) (log2 ratio); higher = more soluble. The note with it: cell cycle stage: G1/S.
Series [2] deals with HeLa Kyoto. In words: melting temperature (median over replicates), in situ; higher = more thermally stable.
For series [3], the system named is HeLa Kyoto. In words: solubility change mitosis vs G1/S (difference of NP-40 vs SDS log2 ratios) (log2 ratio difference); higher = more soluble in mitosis.
For series [4], the system named is HeLa Kyoto. In words: thermal stability score vs G1/S (z-score of summed log2 fold changes over temperatures); higher = more thermally stable than in G1/S.
Where [5] appears, read: cell cycle stage: early G1 (4.5 h after nocodazole release).

From the supplement of paper PMC5998384 come the findings set out here.
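Wherever melting temperature (median over replicates), in situ is given: HeLa Kyoto cells synchronized by double thymidine or nocodazole block, proteins quantified by TMT10plex mass spectrometry, three independent biological replicates.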
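Wherever solubility change mitosis vs G1/S (difference of NP-40 vs SDS log2 ratios) is given: synchronized HeLa Kyoto cells (double thymidine block for G1/S, nocodazole release for mitosis), protein amounts in NP-40 versus SDS lysates quantified by mass spectrometry, three biological replicates.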
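Wherever solubility in G1/S (NP-40 vs SDS abundance) is given: HeLa Kyoto cells arrested at G1/S by double thymidine block, proteins quantified by TMT10plex mass spectrometry in mild NP-40 versus SDS extracts, three biological replicates.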
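Wherever thermal stability score vs G1/S (z-score of summed log2 fold changes over temperatures) is given: synchronized HeLa Kyoto cells, proteins quantified by TMT10plex mass spectrometry, three biological replicates, mitosis taken 0.5 h after nocodazole release, G1/S directly after double thymidine block.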

Sequence of AFG3L2 (chain, as listed by the source): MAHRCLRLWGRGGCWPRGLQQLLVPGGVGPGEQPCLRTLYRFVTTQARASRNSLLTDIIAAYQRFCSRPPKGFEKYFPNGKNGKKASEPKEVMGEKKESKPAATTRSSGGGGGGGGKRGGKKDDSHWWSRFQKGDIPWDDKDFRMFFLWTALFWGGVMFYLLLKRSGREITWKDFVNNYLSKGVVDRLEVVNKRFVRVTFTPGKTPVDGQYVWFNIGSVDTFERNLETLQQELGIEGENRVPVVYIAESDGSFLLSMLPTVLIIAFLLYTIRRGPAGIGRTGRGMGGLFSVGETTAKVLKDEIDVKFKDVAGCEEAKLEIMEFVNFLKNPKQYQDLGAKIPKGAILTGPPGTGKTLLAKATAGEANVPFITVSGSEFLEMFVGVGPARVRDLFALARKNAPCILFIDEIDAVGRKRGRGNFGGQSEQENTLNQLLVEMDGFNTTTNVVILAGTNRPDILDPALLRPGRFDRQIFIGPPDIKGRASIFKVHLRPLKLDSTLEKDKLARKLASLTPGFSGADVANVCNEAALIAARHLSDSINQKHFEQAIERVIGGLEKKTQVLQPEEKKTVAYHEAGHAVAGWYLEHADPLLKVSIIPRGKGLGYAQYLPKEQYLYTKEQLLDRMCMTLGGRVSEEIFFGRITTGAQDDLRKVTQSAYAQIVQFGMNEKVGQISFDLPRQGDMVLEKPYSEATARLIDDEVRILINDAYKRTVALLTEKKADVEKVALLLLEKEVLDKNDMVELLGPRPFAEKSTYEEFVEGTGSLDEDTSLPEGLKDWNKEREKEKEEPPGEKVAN

As to “MVVFVGRRLPALLGLFKKKGSAKAENDKHLSVGPGQGPGSAVDEHQDNVFFPSGRPPHLEELHTQAQEGLRSLQHQEKQKLNKGGWDHGDTQSIQSSRTGPDEDNISFCSQTTSYVAESSTAEDALSIRSEMIQRKGSTFRPHDSFPKSGKSGRRRRERRSTVLGLPQHVQKELGLRNEREAPGTPRAPGARDAVRIPTVDGRPRGTSGMGARVSLQALEAEAEAGAETEAMLQRHIDRVYRDDTFVGRSTGTRAPPLTRPMSLAVPGLTGGAGPAEPLSPAMSISPQATYLSKLIPHAVLPPTVDVVALGRCSLRTLSRCSLHSASPASVRSLGRFSSVSSPQPRSRHPSSSSDTWSHSQSSDTIVSDGSTLSSKGGSEGQPESSTASNSVVPPPQGGSGRGSPSGGSTAEASDTLSIRSSGQLSGRSVSLRKLKRPPPPPRRTHSLHQRGLAVPDGPLGLPPKPERKQQPQLPRPPTTGGSEGAGAAPCPPNPANSWVPGLSPGGSRRPPRSPERTLSPSSGYSSQSGTPTLPPKGLAGPPASPGKAQPPKPERVTSLRSPGASVSSSLTSLCSSSSDPAPSDRSGPQILTPLGDRFVIPPHPKVPAPFSPPPSKPRSPNPAAPALAAPAVVPGPVSTTDASPQSPPTPQTTLTPLQESPVISKDQSPPPSPPPSYHPPPPPTKKPEVVVEAPSASETAEEPLQDPNWPPPPPPAPEEQDLSMADFPPPEEAFFSVASPEPAGPSGSPELVSSPAASSSSATALQIQPPGSPDPPPAPPAPAPASSAPGHVAKLPQKEPVGCSKGGGPPREDVGAPLVTPSLLQMVRLRSVGAPGGAPTPALGPSAPQKPLRRALSGRASPVPAPSSGLHAAVRLKACSLAASEGLSSAQPNGPPEAEPRPPQSPASTASFIFSKGSRKLQLERPVSPETQADLQRNLVAELRSISEQRPPQAPKKSPKAPPPVARKPSVGVPPPASPSYPRAEPLTAPPTNGLPHTQDRTKRELAENGGVLQLVGPEEKMGLPGSDSQKELA [KIAA1522]”, in the series on HeLa Kyoto [1], the “solubility in G1/S (log2)” value stood at 0.188. Further, the melting temperature was 52 °C in the series on HeLa Kyoto [2] (cell cycle stage: G1/S) and 52.4 °C with HeLa Kyoto [2] (cell cycle stage: mitosis). Also, the “solubility change mitosis (log2)” value with HeLa Kyoto [3] is -0.199. The thermal stability score in the series on HeLa Kyoto [4] (setting [5]) stood at 0.117; in the series on HeLa Kyoto [4] (cell cycle stage: mitosis) it was 0.588.
“MSSRKLSGPKGRRLSIHVVTWNVASAAPPLDLSDLLQLNNRNLNLDIYVIGLQELNSGIISLLSDAAFNDSWSSFLMDVLSPLSFIKVSHVRMQGILLLVFAKYQHLPYIQILSTKSTPTGLFGYWGNKGGVNICLKLYGYYVSIINCHLPPHISNNYQRLEHFDRILEMQNCEGRDIPNILDHDLIIWFGDMNFRIEDFGLHFVRESIKNRCYGGLWEKDQLSIAKKHDPLLREFQEGRLLFPPTYKFDRNSNDYDTSEKKRKPAWTDRILWRLKRQPCAGPDTPIPPASHFSLSLRGYSSHMTYGISDHKPVSGTFDLELKPLVSAPLIVLMPEDLWTVENDMMVSYSSTSDFPSSPWDWIGLYKVGLRDVNDYVSYAWVGDSKVSCSDNLNQVYIDISNIPTTEDEFLLCYYSNSLRSVVGISRPFQIPPGSLREDPLGEAQPQI [INPP5K]”: the “solubility in G1/S (log2)” value in the series with HeLa Kyoto [1] is -0.384. In the series on HeLa Kyoto [2] (cell cycle stage: mitosis), this substance returned a melting temperature of 51.8 °C. Further, in the series with HeLa Kyoto [3], the “solubility change mitosis (log2)” value is -0.0846. Besides, the thermal stability score with HeLa Kyoto [4] (setting [5]) is -0.0552; with HeLa Kyoto [4] (cell cycle stage: mitosis), 0.149.
In the case of AFG3L2, the “solubility in G1/S (log2)” value in the series on HeLa Kyoto [1] was 0.107. In addition, the melting temperature with HeLa Kyoto [2] (cell cycle stage: G1/S) is 51.8 °C; in the series on HeLa Kyoto [2] (cell cycle stage: mitosis) it was 51.9 °C. The “solubility change mitosis (log2)” value in the series with HeLa Kyoto [3] is -0.0792. In addition, the figures for the thermal stability score in the series on HeLa Kyoto [4] (setting [5]) and in the series on HeLa Kyoto [4] (cell cycle stage: mitosis) were 2.84 and 0.443, respectively.
For the substance “MASEELQKDLEEVKVLLEKATRKRVRDALTAEKSKIETEIKNKMQQKSQKKAELLDNEKPAAVVAPITTGYTVKISNYGWDQSDKFVKIYITLTGVHQVPTENVQVHFTERSFDLLVKNLNGKSYSMIVNNLLKPISVEGSSKKVKTDTVLILCRKKVENTRWDYLTQVEKECKEKEKPSYDTETDPSEGLMNVLKKIYEDGDDDMKRTINKAWVESREKQAKGDTEF [CACYBP]”, the “solubility in G1/S (log2)” value in the series with HeLa Kyoto [1] stood at 0.412. In addition, the melting temperature in the series with HeLa Kyoto [2] (cell cycle stage: G1/S) and with HeLa Kyoto [2] (cell cycle stage: mitosis) was 52.2 °C throughout. The “solubility change mitosis (log2)” value in the series on HeLa Kyoto [3] is -0.0888. The figures for the thermal stability score with HeLa Kyoto [4] (setting [5]) and in the series with HeLa Kyoto [4] (cell cycle stage: mitosis) were 0.00133 and -1.11, respectively.
